Results published in IntAct's records for PubMed 15990873.

B1: Protein MKS1 (Arabidopsis thaliana (Mouse-ear cress)), Q8LGD5 (parent)
chain: MDPSEYFAGGNPSDQQNQKRQLQICGPRPSPLSVHKDSHKIKKPPKHPAPPPNRDQPPPYIPREPVVIYAVSPKVVHATASEFMNVVQRLTGISSGVFLESGGGGDVSPAARLASTENASPRGGKEPAARDETVEINTAMEEAAEFGGYAPGILSPSPALLPTASTGIFSPMYHQGGMFSPAIPLGLFSPAGFMSPFRSPGFTSLVASPTFADFFSHIWDQD
partner: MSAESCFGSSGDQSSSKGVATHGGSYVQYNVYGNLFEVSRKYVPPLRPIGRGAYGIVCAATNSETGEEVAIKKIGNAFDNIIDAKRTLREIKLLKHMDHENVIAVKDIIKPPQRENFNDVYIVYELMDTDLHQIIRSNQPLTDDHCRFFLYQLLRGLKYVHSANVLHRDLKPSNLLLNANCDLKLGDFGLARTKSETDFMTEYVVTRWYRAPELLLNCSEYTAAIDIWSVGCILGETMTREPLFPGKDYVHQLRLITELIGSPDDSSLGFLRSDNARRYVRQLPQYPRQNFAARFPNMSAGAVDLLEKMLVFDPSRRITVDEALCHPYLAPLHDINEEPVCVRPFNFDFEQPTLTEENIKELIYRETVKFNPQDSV

Variants of: B1
Settings: with mpk4_arath MPK4, Q39024

Question: Which “effect of a mutation on the interaction” value does the source give for S30A here?
Answer: The value was “decreasing interaction”.
